Article PMC3017872

Legend:
[1] = target: Fcε receptors expressed on the surface of U937 monocytic cells (human (endogenous in U937)); assay: flow cytometry on cells
[2] = target: recombinant IgE receptor FcεRI alpha (sFcεRIα) (UniProt P12319); assay: SPR
Chain of UniProt P12319 (P12319 26-205): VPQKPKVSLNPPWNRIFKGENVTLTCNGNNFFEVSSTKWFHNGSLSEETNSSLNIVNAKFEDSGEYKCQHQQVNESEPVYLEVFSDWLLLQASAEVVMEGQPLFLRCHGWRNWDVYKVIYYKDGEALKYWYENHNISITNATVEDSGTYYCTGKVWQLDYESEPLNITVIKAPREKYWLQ

percent of cells bound [1] [%] | koff [2] [s⁻¹] | kon [2] [M⁻¹ s⁻¹] | Substance
60.6 | – | – | chimaeric MOv18 IgE antibody against the ovarian cancer antigen FBP
– | 2.6e-05 | 230000 | chimaeric antibody NIP IgE
